This data set is described as follows: yeast display, Sf9 membrane polyspecificity reagent, FACS + sequencing; frameworks hold sequencing errors. In short, it runs like this: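 Genes from sorted yeast were amplified by colony PCR, read by MiSeq 2 × 250 sequencing and filtered on CDR length. These cells carried a synthetic nanobody library in Saccharomyces cerevisiae BJ5465 and were sorted by FACS into low and high (top ~1%) gates on anti-HA and streptavidin fluorescence. Polyreactivity is labelled according to the gate of origin.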
For the sequence “QVQLVESGGGLVQAGGSLRLSCAASGRTFLWYAMGWYRQAPGKEREFVAAITKSSGSTYYADSVKGRFTISRDNAKNTVFLQMNSLKPEDNAVYYCAKRPFSTRYDYWGQVTQVTVSS”, the “polyreactivity (PSR sort gate)” value was “high polyreactivity”.

On to “QVQLVESGGGLVQAGGSLRLSCAASGRTFLYNAMGWYRQAPGKERELVAAISWNGGSTYYADSVKGRFTISRDNAKNTVYLQMNSLKPEDTAVYYCNAVYRPRVGRRFPTGYDYWGQGTQVTVSS”, for which the “polyreactivity (PSR sort gate)” value is “high polyreactivity”.

With “QVQLVESGGGLVQAGGSLRLSCAASGRTFNAYAMGWYRHAPGKERELVAAISSGGSTYYADSVKGRFTISRDNAKNTVYLLMNSLKPEDTAVYYCNKVYGWRQFDYWGQGTQVTVSS”, the “polyreactivity (PSR sort gate)” value is “high polyreactivity”.

Regarding “QVQLVESGGGLVQAGGSLRLSCAASGRTFNAYTLGWYTQAPGTERELVAAITSSGGNTYNADSVKGRFTISRDNAKNTVYLQMNSLKPEETAVYYCNTVYLYGTHDYWGQGTQVTVSS”, the “polyreactivity (PSR sort gate)” value was “low polyreactivity”.

Regarding “QVQLVESGGGLVQAGGSLRLSCAASGRTFNAYTMGWYRQAPGKERELVAAITRSGARTYYADSVKGRFTISRDNAKNTVYLQMNSLKPEDTAVYYCNKAAFNYYLYGYWGQGTQVTVSS”, the “polyreactivity (PSR sort gate)” value is on record as “high polyreactivity”.

Turning to “QVQLVESGGGLVQAGGSLRLSCAASGRTFNEYAMGWYRQAPGKERELVAAISSSGDSTYYADSVKGRFTISRDNAKNTVYLQMNSLKPEDTAVYYCAAQVVVWYPYVYFPGYDYWGQGTQVTVSS”, the “polyreactivity (PSR sort gate)” value is “low polyreactivity”.

As to “QVQLVESGGGLVQAGGSLRLSCAASGRTFNFNTMGWYRQSPGKERELVASITSGGSTNYADSVKGRFTISRDNAKNTVYIQMNILKPEDTAVYYFAVTVSGPYAYDYWGQGTQVTVSS”, the “polyreactivity (PSR sort gate)” value is listed as “low polyreactivity”.

Take “QVQLVESGGGLVQAGGSLRLSCAASGRTFNGNAMGWYRQAPGKERELVAAISWSGGSTYYADSVKGRFTISRDNAKNTVYLQMNSLKPEDTAVYYCNADYFAWDLMYYWGQGTQVTVSS”: the “polyreactivity (PSR sort gate)” value is on record as “low polyreactivity”.

With “QVQLVESGGGLVQAGGSLRLSCAASGRTFNGYAMGWSRQAPGKERELVAALTGSVGSTYYADSVKGRFTISRDNAKNPGELQLNSLKPDDTAVYYCATRWKATRARYDYWGQGTQVTVTS”, the “polyreactivity (PSR sort gate)” value is “high polyreactivity”.

“QVQLVESGGGLVQAGGSLRLSCAASGRTFNGYAMGWYRQAPGKEREFVAAITSRGGSTYYADSVKGRFTISRDNAKNTVYLQMNSLKPEDTAVYYCAARAYTALSWRRYGYWGQGTQVTVSS”: the “polyreactivity (PSR sort gate)” value was “high polyreactivity”.

Turning to “QVQLVESGGGLVQAGGSLRLSCAASGRTFNHYAMGWYRQAPGKERELVPGITISGGSTYYADSVKGRFTISRDNAKNTVYLQMNSLKPEDTAVYYCNAVYDYYRQSNWTMDYWGQGTQVTVSS”, the “polyreactivity (PSR sort gate)” value was “low polyreactivity”.

“QVQLVESGGGLVQAGGSLRLSCAASGRTFNKYAMGWYRQAPGKERELVAAINTSGGSTYYADSVKGRFTISRDNAKNTVYLQMNSLKPEDTAVYYCAAQSRSVYGRSYGYWGQGTQVTVSS”: the “polyreactivity (PSR sort gate)” value was “high polyreactivity”.

As for “QVQLVESGGGLVQAGGSLRLSCAASGRTFNLNAMGWYRQAPGKEREFVAAISNSGVRTYYADSVKGRFTISRDNAKNTVYLQMNSLKPVDTAVYYCARTYQVGDSIDDYWGQGTQVTVSS”, the “polyreactivity (PSR sort gate)” value is listed as “low polyreactivity”.

Consider “QVQLVESGGGLVQAGGSLRLSCAASGRTFNLYAMGWSRQAPGKERELVARITSGGSTNYADSEKGRFTISRDNAKNTVYLQMNSLKPEDTAVYYCAASSYNRGDYWGQGTQVTVSS”, for which the “polyreactivity (PSR sort gate)” value is “high polyreactivity”.

Regarding “QVQLVESGGGLVQAGGSLRLSCAASGRTFNPNAMGWYRQAPGKERELVATISWSSDSTYYADSVKGRFTISRDNAKNTVYLQMNSLKPEDTAVYYCNAQLSYHWYSPGYDYWGQGTQVTVSS”, the “polyreactivity (PSR sort gate)” value was “low polyreactivity”.

In the case of “QVQLVESGGGLVQAGGSLRLSCAASGRTFNSTAMGWYRQAPGKERELVAAITRSGGSTYYADSVKGRFTISRDYAKNTVYLQMISQKPEDTAVNYCITTRWTQRTSFDYWGQGTQVTVSS”, the “polyreactivity (PSR sort gate)” value is “low polyreactivity”.

Turning to “QVQLVESGGGLVQAGGSLRLSCAASGRTFNSYAMGWYRQAPGKERELVAAISWNTGSTYYADSVKGRFTISRDNAKNTVYLQMNSLKPEDTAVYYCAAEGELYTAFGTLSFDYWGHGTQVTVSS”, the “polyreactivity (PSR sort gate)” value is “high polyreactivity”.

As for “QVQLVESGGGLVQAGGSLRLSCAASGRTFNSYAMGWYRQSPGKERELVADITSSGGSTYYADSVKGRFTISRDNAKNTVFLQMNSLIPEDTALYYCAADGYTRLPTYLRVNHRSLDYWGQGTQVTVSS”, the “polyreactivity (PSR sort gate)” value is reported as “low polyreactivity”.

With “QVQLVESGGGLVQAGGSLRLSCAASGRTFNTNAMGWYRQAPGKERELVAAISGGGSTYADSVKGRFTISRDNAKNTVYLQMNSLKPEDTAVYYCKAYPPYLYATYDYWGQGTQVTVSS”, the “polyreactivity (PSR sort gate)” value is reported as “low polyreactivity”.

For the sequence “QVQLVESGGGLVQAGGSLRLSCAASGRTFNVYAMGWYRQAPGKERELVAAISKSGGSTYYADSVKGRFTISRDNAKNTVYLQMTSLKPEDTAVYYCNRYRFVRQVRGGGLPYDYWGQGTQVTVSS”, the “polyreactivity (PSR sort gate)” value is “high polyreactivity”.

On to “QVQLVESGGGLVQAGGSLRLSCAASGRTFNVYAMGWYRQAPGKERELVAVITNGGSTNYADSVKGRFTISRDNAKNTVYLQMNSLKPEDTAVYYCAADYYASLTREDRDDYWGQGTQVTVSS”, for which the “polyreactivity (PSR sort gate)” value is listed as “low polyreactivity”.

With “QVQLVESGGGLVQAGGSLRLSCAASGRTFNWYTMGWYRQAPGKERELVARINGRGGSTYYADSVKGRFTISRDNAKNTVYLQMNSLKPEDTAVYYCAADLHKLARYDYWGQGTQVTVSS”, the “polyreactivity (PSR sort gate)” value was “high polyreactivity”.

Regarding “QVQLVESGGGLVQAGGSLRLSCAASGRTFPAYAMGWYRQAPGKERELVAAISYSGGRTRYADSVKGRFTISRDNAKNTVYLQMNSLKPEDTAVYDCNRVIPTQSLRDYYWGQGTQVTVSS”, the “polyreactivity (PSR sort gate)” value is listed as “high polyreactivity”.

Regarding “QVQLVESGGGLVQAGGSLRLSCAASGRTFPAYAMGWYRQAPRKERELVARISYSGGNTYYADSVKGRFTISRDNAKNTVYLQMNSLKPEDTAVYYCAATRSHYPYRSGGDYWGQGTQVTVSS”, the “polyreactivity (PSR sort gate)” value is reported as “low polyreactivity”.

For the sequence “QVQLVESGGGLVQAGGSLRLSCAASGRTFPFNAMGWYRQAPGKERELVAGISSGGRTNYADSVKGRFTISRDNAKNTVYLQMNSMQPEDTAVYYCAARYQPSRAARWTLDYWGQGTQVTVSS”, the “polyreactivity (PSR sort gate)” value is listed as “high polyreactivity”.

As to “QVQLVESGGGLVQAGGSLRLSCAASGRTFPFYAMGWYRQAPGKEREFVAAITASGDSTYYADSVKGRFTISRDNAKNTVYLQMNSLKPEDTAVYYCAADLPVWYVTRYDYWGQGTQVTVSS”, the “polyreactivity (PSR sort gate)” value was “low polyreactivity”.

As for “QVQLVESGGGLVQAGGSLRLSCAASGRTFPGNAMGGYRQAPGKERELVAAISSRGGSTYYADSVKGRFTISRDNAKNTVNLQMKSLKPEDTAVYYCNAASNYRVRRTYHGDYWGLGTQVTVSS”, the “polyreactivity (PSR sort gate)” value is given as “high polyreactivity”.

“QVQLVESGGGLVQAGGSLRLSCAASGRTFPGNAMGWYRQAPGKEREFFAAITRSGGSTYADSVKGRFTISRDNAKNTVYLQMNSLKPEDTAVSYCAATFKWYSHTKPRFDYWGQGTKVTVSS”: the “polyreactivity (PSR sort gate)” value is recorded as “low polyreactivity”.

Turning to “QVQLVESGGGLVQAGGSLRLSCAASGRTFPGNAMGWYRQAPGKERELVAAISKSSSRTYYADSVKGRFTISRDNAKNTVYLQMNSLKPEDTAVYYCAASSFNNGHRYDYWGQGTQVTVSS”, the “polyreactivity (PSR sort gate)” value is “high polyreactivity”.

Regarding “QVQLVESGGGLVQAGGSLRLSCAASGRTFPGNAMGWYRQAPGKERELVAAISSRGGSTYYADSVKGRFTISRDNAKNTVYLQMNSLKPEDTAVYYCARRYLPYGGYYYWGQGTQVTVSS”, the “polyreactivity (PSR sort gate)” value is on record as “high polyreactivity”.

On to “QVQLVESGGGLVQAGGSLRLSCAASGRTFPGNAMGWYRQAPGKERELVAAISWSGTRTYYADSVKGRFTISRDNAKNTVYLQINSLKPEDTAVYYCAARRYGVRSYGFDSWGQGTQVTVSS”, for which the “polyreactivity (PSR sort gate)” value is reported as “high polyreactivity”.

As to “QVQLVESGGGLVQAGGSLRLSCAASGRTFPGNAMGWYRQAPGKERELVATITWSSGRTHYADSVKGRFTISRDNAKNTVYLQMNSLKPEDTAVYYCAAKLIVAVGGFYYWGQGTQVTVSS”, the “polyreactivity (PSR sort gate)” value was “low polyreactivity”.

For the sequence “QVQLVESGGGLVQAGGSLRLSCAASGRTFPGNDMGWYRQAPGKERELVAAISGNGGNTNYADSVKGRFTISRDNAKNTVYLQMNSLKPEDTAVYYCKADVPSDGYPGYPGGFESWGQGTQVTVSS”, the “polyreactivity (PSR sort gate)” value is reported as “low polyreactivity”.

Regarding “QVQLVESGGGLVQAGGSLRLSCAASGRTFPGYAMGWYREAPGKERELVAAISSSGGSTYYADSVKGRFTISRDNAKNTVYFQMNSLKPEVTAVYSCAVPYWYGRGHCYWGQGTQVTVSS”, the “polyreactivity (PSR sort gate)” value is on record as “low polyreactivity”.

On to “QVQLVESGGGLVQAGGSLRLSCAASGRTFPGYAMGWYRQAPGKERELVAAISNSGGRTYYADSVKGRFTISRDYAKNTVYLQMNSLKPEDTAVYYCNATTDNGSNKRYYYWGQGTQVTVSS”, for which the “polyreactivity (PSR sort gate)” value is “high polyreactivity”.

As for “QVQLVESGGGLVQAGGSLRLSCAASGRTFPGYAMGWYRQAPGKERELVAGISYRGGSTYYADSVKGRFTISRDNAKNTVYLQMYSLKPEDTAVYYCARDYSRHKGDYWGQGTQVTVSS”, the “polyreactivity (PSR sort gate)” value was “low polyreactivity”.

For the sequence “QVQLVESGGGLVQAGGSLRLSCAASGRTFPINTMGWSRQAPGKEREFVAAITLGGRTYYADSVKGRFTISRDNAKNTVYLQMNSLKPEDTAVYYCAVAQPGYWLYRHFLPGSDYWGQGTQVTVSS”, the “polyreactivity (PSR sort gate)” value is reported as “high polyreactivity”.

“QVQLVESGGGLVQAGGSLRLSCAASGRTFPIYAMGWYRQAPGKERELVAAITGGGSTNYADSVKGRFTISRDNAKNTVYLQMNSLKPEDTAVYYCNARWFWYRPGGSRVDYWGQGTHVTVSS”: the “polyreactivity (PSR sort gate)” value was “high polyreactivity”.

On to “QVQLVESGGGLVQAGGSLRLSCAASGRTFPIYAMGWYRQAPGKERELVAAITYSGGSTYYADSVKGRFTISRDNAKNTVYLQMNSLKPEDTAVSYCAVDGTKPYWHQRYDYWGQGTLVTVSS”, for which the “polyreactivity (PSR sort gate)” value was “low polyreactivity”.

On to “QVQLVESGGGLVQAGGSLRLSCAASGRTFPIYAMGWYRQSPGKERELVAAITYSGGSTYYADSVKGRFTISRDNANNKVYLKMNSLKPEDTSVYYCAVDGTKPYWHQRYDYWGQGTQVTVSS”, for which the “polyreactivity (PSR sort gate)” value is listed as “low polyreactivity”.
